Measurements: patent US20260250318A1, “COMPOSITIONS AND METHODS FOR CROSSING THE BLOOD BRAIN BARRIER” (VOYAGER THERAPEUTICS, INC., priority 2022, published 2026)

Columns and labels:
[1] = tested on: GPI anchored proteins (endogenous ALPL) on HeLa cells; assay: Transduction of HeLa cells after PI/PLC removal of GPI anchored proteins; assay type: cell-based, human; settings: 1E4 VG/cell
Method: Endogenous ALPL was also removed from the surface of HeLa cells by treatment with increasing concentrations phosphatidylinositol-specific phospholipase C (PI/PLC), which cleaves GPI anchored proteins (0, 1, 3, 6, or 10 U/mL), for 1.5 hours at 37° C. Following PI/PLC treatment, cells were incubated with 1E4 VG/cell for three hours of AAV particles comprising the TTM-002 capsid variant or AAV particles comprising an AAV9 control capsid, cells were then washed to remove free virus, and luciferase activity was measured 24 hours post-transduction (RLU).

brain [2] = assay: Second cross-species screen, synthetic library passage 3 in BALB/c mice; assay type: in vivo; settings: for Fold enrichment over AAV9 in BALB/c: third passage (P3)
Method: There were approximately 500 variants in this synthetic library. This synthetic library was then injected back into both strains of mice (C57Bl/6 and BALB/c; passage 3). RNA was recovered from the mouse brains, RT-PCR amplification was performed, and fold-enrichment relative to wild-type AAV9 was calculated by NGS analysis, which is provided in Table 11.

brain [3] = assay: Second cross-species screen, passage 2 in BALB/c mice after first passage in NHPs; assay type: in vivo
Method: A second cross-species evolution screen was performed using an AAV capsid variant library with a modification in loop IV introduced as described above and passaging it once through NHPs (passage 1) and then subsequently injected it into two different strains of mice (passage 2), C57Bl/6 and BALB/c. The fold-enrichment for each variant in the brain of each mouse species was calculated by systematic NGS enrichment analysis following RNA recovery and RT-PCR amplification. The fold enrichment values in the second passage in mice were compared to those fold enrichment values from the second pass that was performed in NHPs as described above. […] Further, 10 of these 12 variants comprised the SPH motif and a positive residue in one of the next three subsequent residues (Table 10).

[4] = tested on: brains and tissues (liver quadriceps, and heart); assay: NGS fold enrichment of capsid variants in marmosets; assay type: in vivo, marmosets (Callithrix jacchus); settings: 2E13 vg/kg IV, 28 days
Source text: (§1) To investigate tropism in marmoset monkeys, AAV particles comprising the TTM-001 capsid variant, the TTM-002 capsid variant, an AAV9 capsid variant comprising SEQ ID NO: 966, or an AAV9 control, were intravenously injected into NHPs (n=2, >10 months of age) at a dose of 2E13 vg/kg (8.75E12 vg/mL). After 28-days in life, the brains and tissues (liver quadriceps, and heart) of the NHPs were collected and RNA was extracted. Following RNA recovery and RT-PCR amplification, a systematic NGS enrichment analysis was performed to calculate the fold enrichment ratio relative to the AAV9 wild-type control.

[5] = tested on: brain, spinal cord, and DRG of the NHPs; assay: NGS fold enrichment of synthetic library (passage 3) in NHPs, first cross-species screen; assay type: in vivo, cynomolgus macaques (Macaca fascicularis); settings: for fold enrichment in the DRG of NHPs relative to AAV9 / fold enrichment in the brain of NHPs relative to AAV9 / fold enrichment in the spinal cord of NHPs relative to AAV9: passage 3, intravenous; for Fold enrichment over AAV9 in the brain of NHPs / Fold enrichment over AAV9 in the spinal cord of NHPs: synthetic library passage 3, intravenous, RNA NGS, relative to wild-type AAV9
Procedure, shortened: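 Synthetic capsid library (passage 3) was given intravenously […] to NHPs aged 2-4 years and to BALB/c and C57Bl/6 mice (n=3 each, 6-8 weeks). After about 28 days in vivo, tissue RNA was RT-PCR amplified and NGS-sequenced; values are fold enrichment per variant relative to wild-type AAV9.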

[6] = tested on: brains and tissues (liver, DRG, quadriceps, and heart); assay: NGS fold enrichment of capsid variants in African green monkeys; assay type: in vivo, African green monkeys (Chlorocebus sabaeus); settings: 2E13 vg/kg IV, 14 days
Source text: as §1, with “African green” for “marmoset”, “control under the control of a synapsin promoter,” for “control,”, “3-12 years” for “>10 months”, “vg/kg.” for “vg/kg (8.75E12 vg/mL).”, “14-days” for “28-days”, “(liver, DRG,” for “(liver”

[7] = P3, average of BALB/c and C57Bl/6

Row | Molecule | Transduction in HeLa as measured by luciferase assay (RLU) following treatment with PI/PLC ([1]; PI/PLC 0 U/mL) | Transduction in HeLa as measured by luciferase assay (RLU) following treatment with PI/PLC ([1]; PI/PLC 1 U/mL) | Transduction in HeLa as measured by luciferase assay (RLU) following treatment with PI/PLC ([1]; PI/PLC 3 U/mL) | Transduction in HeLa as measured by luciferase assay (RLU) following treatment with PI/PLC ([1]; PI/PLC 6 U/mL) | Transduction in HeLa as measured by luciferase assay (RLU) following treatment with PI/PLC ([1]; PI/PLC 10 U/mL) | Average fold enrichment over AAV9 (brain [2]; [7]) | Fold enrichment over AAV9 in BALB/c (brain [2]) | Fold enrichment over AAV9 in BALB/c P2 (brain [3]) | expression relative to AAV9 in the heart of marmosets [4] | fold increase in expression relative to AAV9 in the brain of marmosets [4] | fold enrichment in the DRG of NHPs relative to AAV9 [5] | fold enrichment in the brain of NHPs relative to AAV9 [5] | fold enrichment in the spinal cord of NHPs relative to AAV9 [5] | Fold enrichment over AAV9 in the brain of NHPs [5] | Fold enrichment over AAV9 in the spinal cord of NHPs [5] | expression relative to AAV9 in the heart of African green monkeys [6] | fold increase in expression relative to AAV9 in the brain of African green monkeys [6] | also measured
1 | AAV9: wild-type AAV9 control capsid [reference compound] | 239.3 RLU | 193.7 RLU | 222 RLU | 207.7 RLU | 212 RLU |  |  |  |  |  |  |  |  |  |  |  |  | 
2 | TTM-001: AAV9 capsid variant comprising SPHSKA (SEQ ID NO: 941) in loop IV (protein) chain 1: MAADGYLPDWLEDNLSEGIREWWALKPGAPQPKANQQHQDNARGLVLPGYKYLGPGNGLDKGEPVNAADAAALEHDKAYDQQLKAGDNPYLKYNHADAEFQERLKEDTSFGGNLGRAVFQAKKRLLEPLGLVEEAAKTAPGKKRPVEQSPQEPDSSAGIGKSGAQPAKKRLNFGQTGDTESVPDPQPIGEPPAAPSGVGSLTMASGGGAPVADNNEGADGVGSSSGNWHCDSQWLGDRVITTSTRTWALPTYNNHLYKQISNSTSGGSSNDNAYFGYSTPWGYFDFNRFHCHFSPRDWQRLINNNWGFRPKRLNFKLFNIQVKEVTDNNGVKTIANNLTSTVQVFTDSDYQLPYVLGSAHEGCLPPFPADVFMIPQYGYLTLNDGSQAVGRSSFYCLEYFPSQMLRTGNNFQFSYEFENVPFHSSYAHSQSLDRLMNPLIDQYLYYLSKTINGSGSPHSKAQNQQTLKFSVAGPSNMAVQGRNYIPGPSYRQQRVSTTVTQNNNSEFAWPGASSWALNGRNSLMNPGPAMASHKEGEDRFFPLSGSLIFGKQGTGRDNVDADKVMITNEEEIKTTNPVATESYGQVATNHQSAQAQAQTGWVQNQGILPGMVWQDRDVYLQGPIWAKIPHTDGNFHPSPLMGGFGMKHPPPQILIKNTPVPADPPTAFNKDKLNSFITQYSTGQVSVEIEWELQKENSKRWNPEIQYTSNYYKSNNVEFAVNTEGVYSEPRPIGTRYLTRNL chain 2: GSGSPHSKAQNQQT |  |  |  |  |  | 63.1 fold | 60.312 fold | 44.58 fold | a significant increase in expression relative to AAV9 | 703.3 fold | 0.4 fold | 73.6 fold | 29.4 fold | 73.615 fold | 29.402 fold | a significant increase in expression relative to AAV9 | 43.5 fold | Average fold enrichment over AAV9 (brain [2]; P3, average of BALB/c and C57Bl/6, listed as GSGSPHSKAQNQQT): 63.083 fold; fold enrichment in the brain of NHPs relative to AAV9 ([5]; listed as GSGSPHSKAQNQQT): 76.6 fold
3 | TTM-002: AAV9 capsid variant comprising HDSPHK (SEQ ID NO: 2) in loop IV (protein) chain 1: MAADGYLPDWLEDNLSEGIREWWALKPGAPQPKANQQHQDNARGLVLPGYKYLGPGNGLDKGEPVNAADAAALEHDKAYDQQLKAGDNPYLKYNHADAEFQERLKEDTSFGGNLGRAVFQAKKRLLEPLGLVEEAAKTAPGKKRPVEQSPQEPDSSAGIGKSGAQPAKKRLNFGQTGDTESVPDPQPIGEPPAAPSGVGSLTMASGGGAPVADNNEGADGVGSSSGNWHCDSQWLGDRVITTSTRTWALPTYNNHLYKQISNSTSGGSSNDNAYFGYSTPWGYFDFNRFHCHFSPRDWQRLINNNWGFRPKRLNFKLFNIQVKEVTDNNGVKTIANNLTSTVQVFTDSDYQLPYVLGSAHEGCLPPFPADVFMIPQYGYLTLNDGSQAVGRSSFYCLEYFPSQMLRTGNNFQFSYEFENVPFHSSYAHSQSLDRLMNPLIDQYLYYLSKTINGHDSPHKSGQNQQTLKFSVAGPSNMAVQGRNYIPGPSYRQQRVSTTVTQNNNSEFAWPGASSWALNGRNSLMNPGPAMASHKEGEDRFFPLSGSLIFGKQGTGRDNVDADKVMITNEEEIKTTNPVATESYGQVATNHQSAQAQAQTGWVQNQGILPGMVWQDRDVYLQGPIWAKIPHTDGNFHPSPLMGGFGMKHPPPQILIKNTPVPADPPTAFNKDKLNSFITQYSTGQVSVEIEWELQKENSKRWNPEIQYTSNYYKSNNVEFAVNTEGVYSEPRPIGTRYLTRNL chain 2: GHDSPHKSGQNQQT | 1731 RLU | 474 RLU | 441 RLU | 396.7 RLU | 239.3 RLU | 66.8 fold | 82.460 fold | 59.14 fold | a significant increase in expression relative to AAV9 | 366.6 fold | 0.0 fold | 62.6 fold | 15.6 fold | 62.612 fold | 15.641 fold | a significant increase in expression relative to AAV9 | 13.8 fold | Average fold enrichment over AAV9 (brain [2]; P3, average of BALB/c and C57Bl/6, listed as GHDSPHKSGQNQQT): 66.792 fold; transduction after PI/PLC treatment ([1]; HeLa, luciferase 24 hours): significantly decreased transduction
